For series [1] the following is noted: cited from earlier work.
Series [2] is described as follows: Clinical safety of bemarituzumab (earlier studies, with mFOLFOX6). The format is in vivo, human. From the text:
Corneal events are very common with bemarituzumab with the most common adverse event being dry eye. Although nearly all of the events have been non-serious, grade 3 events such ulcerative keratitis and punctate keratitis which can lead to decreases in visual acuity have been observed. The majority of the corneal events typically resolve with treatment interruption or discontinuation and standard of care interventions for the corneal events. As such, it is contemplated that in some embodiments, subjects treated with bemarituzumab are further treated with ocular lubricants. The ocular lubricants may be administered prophylactically to reduce the risk of corneal events.

The conditions of series [3]: treatment with bemarituzumab, versus FGFR TKIs; cited from earlier work.
The subject of series [4] is FGF23 signaling. The series is described as follows: FGF23 signaling. Particulars: in contrast to the FGFR tyrosine kinase inhibitors.
Series [5] relates to FGFR substrate-2 (FRS2). The series is described as follows: Downstream signaling: phosphorylation of FGFR substrate-2 (FRS2). The format is cell-based. On the procedure:
The effect on downstream signaling was measured by examining phosphorylation of a protein that is directly phosphorylated by the FGFR2 protein, FGFR substrate-2 (FRS2).

For series [6], the system named is FGFR2b overexpressing gastric and breast cancer cell lines. In words: Cell proliferation in cell culture. Type of series: cell-based. Conditions: FGF ligand-stimulated.
Series [7] can be described thus: Embryo-fetal development with prenatal and postnatal development study. Type of series: in vivo. Particulars: all dose levels (5 to 100 mg/kg/doses). The procedure:
(§1) The half-life was dose-dependent, ranging from 0.8 days at the lowest doses (1 to 1.5 mg/kg) to at least 8 days at the highest doses (100 to 150 mg/kg) tested in cynomolgus monkeys. […] Target-mediated clearance was saturable, marked by dose-proportional increases in exposure at doses exceeding this level when dosed at weekly intervals. […] As such, it is contemplated that in some embodiments, subjects treated with bemarituzumab are not pregnant.

The nature of series [8]: Phase 1b study (Example 10): bemarituzumab serum concentration / PK with CAPOX with or without nivolumab. Type of series: in vivo, human. Conditions: for Cycle 1 Cmax (median) / Cycle 1 Ctrough (median) / Cycle 2 Cmax (median) / Cycle 2 Ctrough (median): serum, preliminary. From the text: The actual sample collection date and time (24-hour clock time) of each sample will be recorded.

Series [9] can be described thus: Pharmacokinetics after intravenous administration in cynomolgus monkeys. Type of series: in vivo. On the procedure:
as §1

Series [10] deals with FGFR2b overexpressing gastric and breast xenograft models. In words: Tumor xenograft models. The format is in vivo.
Series [11] has as its target FcγRIIIa (Homo sapiens, UniProt P08637). The series is described as follows: Affinity for Fc receptor. The format is binding. Particulars: compared to the fucosylated molecule. From the text:
In the method of some embodiments, the anti-FGFR2 antibody comprises the heavy chain of SEQ ID NO: 2 and the light chain of SEQ ID NO: 3, and is afucosylated.

In series [12] the target is T1, FGFR2b (Homo sapiens, UniProt P21802).
T1 construct: in cell culture in FGFR2b overexpressing gastric and breast cancer cell lines; endogenous in cells
In words: FGF ligand-stimulated FGFR2b phosphorylation and receptor level in cell culture. The format is cell-based.

A short description of series [13]: Phase 1b study (Example 10): safety of bemarituzumab with CAPOX with or without nivolumab. Type of series: in vivo, human. Particulars: cohort A (DL1 & DL2) and cohort C; based on the known bemarituzumab safety profile.
[14] abbreviates: Cohort A DL1: 15 mg/kg IV Q3W + 7.5 mg/kg C1D8 + CAPOX, N=6.
[15] abbreviates: Cohort A DL2: 22 mg/kg IV Q3W + 11 mg/kg C1D8 + CAPOX, N=4.
[16] abbreviates: Cohort C: 22 mg/kg IV Q3W + 11 mg/kg C1D8 + CAPOX + Nivo, N=6.

“Also recorded” adds a separate entry of the source. Like-named read-outs stand apart in the source and are kept apart here.

Usually half-life stands for the time in which the quantity being followed falls by half.

T1 sequence (P21802 22-822 isoform P21802-3 limits assumed): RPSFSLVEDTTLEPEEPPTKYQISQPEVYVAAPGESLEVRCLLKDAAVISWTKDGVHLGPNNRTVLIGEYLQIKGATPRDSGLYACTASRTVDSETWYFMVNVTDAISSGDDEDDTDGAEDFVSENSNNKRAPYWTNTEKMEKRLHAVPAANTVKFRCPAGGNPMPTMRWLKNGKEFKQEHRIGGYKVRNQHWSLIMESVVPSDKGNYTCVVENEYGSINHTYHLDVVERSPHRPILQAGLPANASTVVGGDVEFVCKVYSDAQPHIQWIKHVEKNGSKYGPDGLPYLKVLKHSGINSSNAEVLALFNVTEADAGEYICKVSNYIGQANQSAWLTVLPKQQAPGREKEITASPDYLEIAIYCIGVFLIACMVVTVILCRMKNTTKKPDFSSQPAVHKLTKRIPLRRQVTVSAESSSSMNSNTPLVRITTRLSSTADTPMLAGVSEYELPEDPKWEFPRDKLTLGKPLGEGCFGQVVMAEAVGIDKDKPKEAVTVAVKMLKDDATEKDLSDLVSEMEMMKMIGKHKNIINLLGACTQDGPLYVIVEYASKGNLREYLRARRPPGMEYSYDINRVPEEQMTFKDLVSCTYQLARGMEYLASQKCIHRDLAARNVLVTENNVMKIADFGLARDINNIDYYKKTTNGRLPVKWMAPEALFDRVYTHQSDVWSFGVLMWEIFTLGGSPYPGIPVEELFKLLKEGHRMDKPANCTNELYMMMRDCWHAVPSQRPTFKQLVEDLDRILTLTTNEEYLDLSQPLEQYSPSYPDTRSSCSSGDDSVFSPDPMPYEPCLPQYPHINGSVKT
Sequence of FcγRIIIa (P08637 17-254): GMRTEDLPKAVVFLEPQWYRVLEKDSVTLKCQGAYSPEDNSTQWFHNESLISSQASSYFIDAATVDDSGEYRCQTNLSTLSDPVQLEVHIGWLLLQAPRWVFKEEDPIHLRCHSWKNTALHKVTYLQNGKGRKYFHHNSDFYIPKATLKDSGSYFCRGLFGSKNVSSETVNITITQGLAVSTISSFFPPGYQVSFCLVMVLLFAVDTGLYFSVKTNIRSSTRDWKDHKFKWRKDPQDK

For the compound `CCCCCOC(=O)Nc1nc(=O)n([C@@H]2O[C@H](C)[C@@H](O)[C@H]2O)cc1F` [capecitabine], the “most common side effects” value in series [1] ((30%)) was “diarrhea, hand-and-foot syndrome, nausea, vomiting, abdominal pain, fatigue/weakness, and hyperbilirubinemia”.

As for `O=C1[O][Pt]2([NH][C@@H]3CCCC[C@H]3[NH]2)[O]C1=O` [oxaliplatin], the “most common side effects” value in series [1] ((40%)) was “peripheral sensory neuropathy, neutropenia, thrombocytopenia, anemia, nausea, increase in transaminases and alkaline phosphatase, diarrhea, emesis, fatigue, and stomatitis”.

For the compound bemarituzumab, the safety profile entry in series [2] (human, in vivo) is on record as “acceptable safety profile”. Also, in series [2] (in combination with mFOLFOX6), the identified risks result was “corneal toxicity, infusion related reactions, gastrointestinal toxicity (stomatitis and mucosal inflammation), nail toxicity and increase in AST and ALT”. For the same compound, the hyperphosphatemia entry in series [3] was “not associated with the hyperphosphatemia”. Also, the FGF23 signaling entry in series [4] is on record as “does not inhibit”. Also, the “downstream signaling (FRS2 phosphorylation)” value in series [5] is “inhibits downstream signaling”. The cell proliferation entry in [6] is reported as “inhibits”. In addition, the “reproductive and developmental toxicities” value in series [7] is “Significant reproductive and developmental toxicities were observed at all dose levels”. Further, the “drug-drug interaction (DDI) with respect to PK between bemarituzumab and nivolumab” value in [8] (CAPOX background) was “No drug-drug interaction”. Also, in [8] (setting [14]), the “Cycle 1 Cmax (median)” value was determined as 360.8 µg/mL, the “Cycle 1 Ctrough (median)” value was found to be 111.5 µg/mL, the “Cycle 2 Cmax (median)” value worked out at 457.0 µg/mL and the “Cycle 2 Ctrough (median)” value turned out to be 86.6 µg/mL. Besides, in [8] (setting [15]), the “Cycle 1 Cmax (median)” value was found to be 333.8 µg/mL, the “Cycle 1 Ctrough (median)” value is 125.9 µg/mL, the “Cycle 2 Cmax (median)” value was determined as 655.8 µg/mL and the “Cycle 2 Ctrough (median)” value came out at 71.1 µg/mL. In series [8] (setting [16]), the “Cycle 1 Cmax (median)” value came to 381.4 µg/mL, the “Cycle 1 Ctrough (median)” value came to 130.1 µg/mL, the “Cycle 2 Cmax (median)” value came to 549.8 µg/mL and the “Cycle 2 Ctrough (median)” value worked out at 133.0 µg/mL. Moreover, the half-life entry in series [9] (highest doses (100 to 150 mg/kg) tested) is reported as “at least 8 days”. The compound also returned a half-life in series [9] (lowest doses (1 to 1.5 mg/kg)) of 19 h. Besides, the PK behaviour result in [9] (rats and cynomolgus monkeys) is on record as “dose-dependent, nonlinear PK”. For the same compound, the tumor growth result in series [10] (FGFR2b overexpressing gastric and breast xenograft models) was “inhibits tumor growth”. In addition, in series [10] (FGFR2b-overexpressing human tumor xenograft models, well-tolerated doses), the anti-tumor activity result is “dose-related anti-tumor activity with regression and complete responses”. Further, the “affinity for the Fc receptor FcγRIIIa” value in series [11] is on record as “higher affinity”. Moreover, the FGFR2b receptor level entry in series [12] is “downregulates the receptor”. Moreover, the FGFR2b phosphorylation entry in series [12] (FGF ligand-stimulated, FGFR2b overexpressing gastric and breast cancer cell lines) is “inhibits; also recorded: blocks”. For the same compound, the safety findings result in series [13] is on record as “no new safety findings”.

These data come from patent publication US20260250397A1, “TREATMENT OF GASTRIC CANCER” (AMGEN INC., priority 2022, published 2026).
